Reference: article PMC9016638 (bioRxiv, 2022)
No end group written: not given here. *: point of attachment. Biotin = O=C1N[C@H]2[C@H](CS[C@H]2CCCCC(=O)*)N1

How the values were obtained:
Assay in all cases: […]
SARS-CoV-2 S2 peptide 42 = biological target: T1, SARS-CoV-2 S2 peptide 42 (SARS-CoV-2 Wuhan-Hu-1, UniProt P0DTC2)
T1 chain: Biotin-PSKPSKRSFIEDLLF

SARS-CoV-2 S2 peptide 43 = biological target: T2, SARS-CoV-2 S2 peptide 43 (SARS-CoV-2 Wuhan-Hu-1, UniProt P0DTC2)
T2 chain: Biotin-PSKRSFIEDLLFNKV

SARS-CoV-2 S2 peptide 44 = biological target: T3, SARS-CoV-2 S2 peptide 44 (SARS-CoV-2 Wuhan-Hu-1, UniProt P0DTC2)
T3 chain: Biotin-RSFIEDLLFNKVTLA

Measured: binding result

B1: COV44-62 (antibody, V domains shown)
VH: QMQLMQSGAEVKKPGASVTVSCKASGDTFSDYRIHWVRQAPGQGLEWMGRMNPKSGDTNFAQKFQGRVTMTRDMSINTAYMTLSGLTFDDTALYYCASLLIVGGFDPLDDFEVWGQGTMVTISS
VL: QSALTQPPSASGSPGQSVTISCSGTSSDVGGYNFVSWYQHHPGKAPKILIYEVTKRPSGVPDRFSGSKSGNTASLTVSGLQAEDEADYYCSSYGGTNNLLFGGGTKLTVL
binds: all assays above

B2: COV44-79 (antibody, V domains shown)
VH: QVQLVESGGGVVQPGRSLRLSCAASGLTFSGYAMHWVRQAPGKGLEWVAVISRDARNKYYADSVKGRFTISRDNSKKTVYLEMNSLRVEDTAVYYCAILIIPGITEPGSPDALDIWGQGTMVSVSS
VL: DIQMTQSPSSMSASVGDRVTITCRASQDISKWLAWYQQRPGKAPKLLIYAASSLQSGVPSRFSGSGSGTDFTLTISSLQPEDFATYYCQQASSFPWSITFGQGTRLEIR
binds: all assays above
